Reference: patent US20240409645A1 (DUALYX, published 2024)

T1: human interleukin-2 receptor α-chain (IL-2Rα; CD25), recombinant protein (human, UniProt P01589 22-240, limits assumed)
T1 construct: also called huIL2R-a; hIL-2RA
T1 sequence: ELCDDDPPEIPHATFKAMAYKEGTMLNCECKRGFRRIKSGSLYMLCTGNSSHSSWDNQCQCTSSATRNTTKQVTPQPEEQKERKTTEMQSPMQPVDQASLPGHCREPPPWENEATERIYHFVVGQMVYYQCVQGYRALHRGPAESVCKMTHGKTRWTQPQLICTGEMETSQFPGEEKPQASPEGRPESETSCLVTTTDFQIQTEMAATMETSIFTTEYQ

T2: cynomolgus monkey IL-2Rα/CD25 subunit (cynomolgus monkey, UniProt H6WS54 22-213)
T2 construct: also called Cyno IL-2R subunit
T2 sequence: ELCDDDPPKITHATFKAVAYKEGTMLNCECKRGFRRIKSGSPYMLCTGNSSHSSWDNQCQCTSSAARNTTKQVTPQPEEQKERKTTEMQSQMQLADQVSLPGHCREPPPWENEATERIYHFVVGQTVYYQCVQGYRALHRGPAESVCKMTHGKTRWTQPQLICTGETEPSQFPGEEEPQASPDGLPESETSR


Columns and labels:
[1] = target: T1, human interleukin-2 receptor α-chain …; experiment: P.E. binding ELISA
How it was run: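 Human or mouse IL-2Rα, IL-2Rβ or IL-2Rγ protein coated directly overnight at 4° C, blocked with 4% Marvel/PBS for 1 hour.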

[2] = target: T1, human interleukin-2 receptor α-chain …; experiment: P.E. off-rate SPR
How it was run: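 First, the IL-2R protein is immobilised via amine coupling in acetate buffer to roughly 2500 RU on a CM5 sensor chip. Next, the VHH extract is loaded at 30 uL/min. Finally, dissociation is recorded for 120s.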

[3] = target: T2, cynomolgus monkey IL-2Rα/CD25 subunit; experiment: ELISA, bivalent; EC50 cyno vs human subunit
Experimental: (§1) Monospecific monovalent and bivalent IL-2Rα-, IL-2Rβ- and IL-2Rγ-specific antibodies that were selected on human IL-2R subunits, were evaluated for their cross-reactivity in an ELISA. Human and cynomolgus monkey receptor subunits (Acrobiosystems, KactusBiosystems) were coated at 1 μg/mL in PBS (pH 7.4) in a Maxisorp plate (Nunc) and incubated overnight at 4° C. The plates were further washed with PBS-Tween pH 7.4 and incubated with 1% cascin/PBS-Tween blocking solution for 1 hour shaking at 400 rpm. Subsequently, the plate was washed three times with PBS-Tween pH 7.4, after which the test antibodies diluted in 0.1% casein/PBS-Tween were added to the plate and incubated for 1 hour. The plate was again washed three times, after which goat anti-human IgG Fc (HRP) detection antibody (abcam) was added to the plate and incubated for 30 min. The colouring reaction was performed with TMB (Sigma-Aldrich) and stopped with 0.5N H₂SO₄.
(§2) Absorbance was measured at 450 nm with the reference wavelength of 620 nm using spectrophotometer. Final analysis and graphic output were performed with GraphPad Prism version 8 (GraphPad Software). The dose-response binding curves were fit to a nonlinear regression model (log (agonist) vs. response with a variable slope (four parameters)).

[4] = target: T2, cynomolgus monkey IL-2Rα/CD25 subunit; experiment: ELISA, bivalent VHH-hFc
Experimental: as §1, §2

[5] = target: T1, human interleukin-2 receptor α-chain …; experiment: ELISA, bivalent VHH-hFc
Experimental: as §1, §2

Binder	OD450 nm [1] [OD450 nm]	koff [2] [s⁻¹]	Fold change [3] [fold]	EC50 [4] [nM]	EC50 [5] [nM]
1-MP01H01 VHH (periplasmic extract) (VHH, soluble VHH in periplasmic extract) VHH: EVQLVESGGGLVQAGGSLRLSCAASGRTFRTHNMGWFRRAPGKEREFVAAISWNVDNTLYADSVKGRFTISRDNGRNMVYLQMNSLKPEDTAVYYCAADNIPLSSDVAATATEYDYWGQGTQVTVSS	1.71	0.0229	–	–	–
4-MP01F04 VHH-hFc, monospecific bivalent (Fc fusion, IgG1 Fc LALA-PG; not shown: human IgG1 CH2 and CH3 domains (Fc)) QVQLVESGGGLVQAGGSLRLSCAASGGTFRTRNMGWFRRAPGKEREFVAAVSWNVDNKLYADSVKGRFTISRDNGRNMVYLQMNSLKPEDTAVYYCAADNIPLSSDMRPTATEYDYWGQGTQVTVSS	–	–	1.1	0.056	0.053
2-MP01A02 VHH-hFc, monospecific bivalent (Fc fusion, IgG1 Fc LALA-PG; also called anti-IL-2Rα Ab 2; not shown: human IgG1 CH2 and CH3 domains (Fc)) QVQLVESGGGLVQPGGSLRLSCATSGFTFRNNFMSWVRQAPGKGLEWVSTISYGGESTTYAESVKGRFTISRDNAKNTLYLQMNNLKPEDTAVYYCAKATSYDSIRSGSRGQGTQVTVSS	–	–	1.1	0.043	0.038
8-MP01C12 VHH-hFc, monospecific bivalent (Fc fusion, IgG1 Fc LALA-PG; also called anti-IL-2Rα Ab 8; anti-IL-2Rα VHH 8; not shown: human IgG1 CH2 and CH3 domains (Fc)) QVQLVESGGGLVQPGGSLRLSCATSGFTFSNNFMSWVRQAPGKGLEFVSTISYGGESTTYAEAVKGRFTISRDNAKNTLYLQMNNLKPEDTAIYYCAKATSYTSIRGAPRGQGTQVTVSS	–	–	1.1	0.054	0.051
3-MP01E03 VHH-hFc, monospecific bivalent (Fc fusion, IgG1 Fc LALA-PG; not shown: human IgG1 CH2 and CH3 domains (Fc)) QVQLVESGGGLVQAGGSLRLSCTASGRTLSSYSMAWFRQAADKGREFVTAISSSGVVTHVLDSVKGRFTISRDNAKNTVYLQMNSLQPEDTALYFCAGTASSYSTYEANYNYWGQGTLVTVSS	–	–	1.9	0.106	0.057
5-MP01F05 VHH-hFc, monospecific bivalent (Fc fusion, IgG1 Fc LALA-PG; not shown: human IgG1 CH2 and CH3 domains (Fc)) EVQLVESGGGLVQAGGSLRLSCAASIRAFTTWSMAWFRQAPGKEREYVARINVSGSVTYYADFVKGRFTISRDNAKKTMYLEMNNLKPEDTALYYCAADRTGVGTNDYNYWGQGTQVTVSS	–	–	1.6	0.095	0.06
6-MP01G05 VHH-hFc, monospecific bivalent (Fc fusion, IgG1 Fc LALA-PG; not shown: human IgG1 CH2 and CH3 domains (Fc)) QVQLQESGGGLVQAGGSLRLSCAASGRTFSSYAMGWFRQAPGKEREFVAVISWNVDNTEYTDSVKGRFTISRDNDKNMVYLQMNSLKPEDTAVYYCAADSIPLSSDMSPTATEYGYWGQGTQVTVSS	–	–	0.9	0.05	0.056
7-MP01G08 VHH-hFc, monospecific bivalent (Fc fusion, IgG1 Fc LALA-PG; also called 07-MP01G08; not shown: human IgG1 CH2 and CH3 domains (Fc)) EVQLVESGGGLVQAGGSLRLSCAASGRAFSMYNMGWFRQAPGKEREFVAATGWSGANTPYADSVKGRFTISRDNTQNTVYLQMNSLKPEDTATYYCAADSIRLRSDVTRIPLEYDYWGQGTQVTVSS	–	–	0.9	0.067	0.072
9-MP05G01 VHH-hFc, monospecific bivalent (Fc fusion, IgG1 Fc LALA-PG; not shown: human IgG1 CH2 and CH3 domains (Fc)) EVQLVESGGGLVQAGGSLRLSCAASGGSIYTYNMGWFRQAPGKEREFVAGTLWSGGDSVYADFAKGRFTLSRENAKNTLYLQMNSLKPEDTATYYCAIDPLSLTSDWRVDELSSWGKGTLVTVSS	–	–	1	0.062	0.065
10-MP05F03 VHH-hFc, monospecific bivalent (Fc fusion, IgG1 Fc LALA-PG; also called anti-IL-2Rα Ab 10; anti-IL-2Rα VHH 10; not shown: human IgG1 CH2 and CH3 domains (Fc)) QVQLVESGGGLVQAGGSLRLSCAASGIPFDNYAMGWFRQAPGKEREFVAARDLEGIITRYGDSVKGRFTISRGNAKNTVFLQMNSLKPEDTAVYYCAARDGGVVAGSRSSAQYNYWGQGTQVTVSS	–	–	1	0.06	0.061
11-MP05H04 VHH-hFc, monospecific bivalent (Fc fusion, IgG1 Fc LALA-PG; not shown: human IgG1 CH2 and CH3 domains (Fc)) QLQLVESGGGLVQAGGSLRLSCAASGLTFEGYAIGWFRQAPGKEREGVSYITGSDGTTYYINSVKGRFTISSDNAKSTVYLQMNTLKPEDTAVYYCAVDRLGSQGRYASAWWRSGDMDLWGKGTQVTVSS	–	–	1.2	0.11	0.093
12-MP05B12 VHH-hFc, monospecific bivalent (Fc fusion, IgG1 Fc LALA-PG; not shown: human IgG1 CH2 and CH3 domains (Fc)) QVQLVESGGGLVQAGGSLRLSCAASGFTFDGYAIGWFRQAPGKEREGVSYITGSDGSTYYADSVKGRFTISSNNAKNTVYLHMNSLKPDDAAVYYCAIDRLGSRGAYVPIWWRSSDMDLWGKGTLVTVSS	–	–	1.1	0.084	0.074
13-MP05E12 VHH-hFc, monospecific bivalent (Fc fusion, IgG1 Fc LALA-PG; not shown: human IgG1 CH2 and CH3 domains (Fc)) QVQLQESGGGLVQAGDSLRLSCAASGFNFGWHAMGWFRQAPGKEREFVATITWTGRDTYYADSVRGRFTISKDNAKDTLFLQMNSLRPDDTGVYYCAKARERATWAYSEDDCDYWGQGTQVTVSS	–	–	1	0.051	0.049
6-MP01G05 VHH (periplasmic extract) (VHH, soluble VHH in periplasmic extract) VHH: QVQLQESGGGLVQAGGSLRLSCAASGRTFSSYAMGWFRQAPGKEREFVAVISWNVDNTEYTDSVKGRFTISRDNDKNMVYLQMNSLKPEDTAVYYCAADSIPLSSDMSPTATEYGYWGQGTQVTVSS	1.79	0.0206	–	–	–
3-MP01E03 VHH (periplasmic extract) (VHH, soluble VHH in periplasmic extract) VHH: QVQLVESGGGLVQAGGSLRLSCTASGRTLSSYSMAWFRQAADKGREFVTAISSSGVVTHVLDSVKGRFTISRDNAKNTVYLQMNSLQPEDTALYFCAGTASSYSTYEANYNYWGQGTLVTVSS	2.54	0.000799	–	–	–
5-MP01F05 VHH (periplasmic extract) (VHH, soluble VHH in periplasmic extract) VHH: EVQLVESGGGLVQAGGSLRLSCAASIRAFTTWSMAWFRQAPGKEREYVARINVSGSVTYYADFVKGRFTISRDNAKKTMYLEMNNLKPEDTALYYCAADRTGVGTNDYNYWGQGTQVTVSS	2.62	0.00042	–	–	–
2-MP01A02 VHH (periplasmic extract) (VHH, soluble VHH in periplasmic extract) VHH: QVQLVESGGGLVQPGGSLRLSCATSGFTFRNNFMSWVRQAPGKGLEWVSTISYGGESTTYAESVKGRFTISRDNAKNTLYLQMNNLKPEDTAVYYCAKATSYDSIRSGSRGQGTQVTVSS	2.62	0.00153	–	–	–
8-MP01C12 VHH (periplasmic extract) (VHH, soluble VHH in periplasmic extract) VHH: QVQLVESGGGLVQPGGSLRLSCATSGFTFSNNFMSWVRQAPGKGLEFVSTISYGGESTTYAEAVKGRFTISRDNAKNTLYLQMNNLKPEDTAIYYCAKATSYTSIRGAPRGQGTQVTVSS	2.53	0.000383	–	–	–
10-MP05F03 VHH (periplasmic extract) (VHH, soluble VHH in periplasmic extract) VHH: QVQLVESGGGLVQAGGSLRLSCAASGIPFDNYAMGWFRQAPGKEREFVAARDLEGIITRYGDSVKGRFTISRGNAKNTVFLQMNSLKPEDTAVYYCAARDGGVVAGSRSSAQYNYWGQGTQVTVSS	2.46	0.000639	–	–	–
